This is an account of results in US20240270846A1 (published 2024).

Experiment [1] has as its target T1, human CD3ed (human, UniProt P07766 23-126; P04234 22-105, limits assumed).
T1 construct: The construct injected as 'human CD3ed' in the Biacore assay is not defined; also called human CD3 epsilon/delta heterodimer
In words: SPR Biacore T200, IgG captured on protein A, antigen as analyte, 25 C.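 Also: antigens flowed over a CM3 chip for 120 s association, KD derived from ka and kd, running buffer (ACES, NaCl, Tween20, pH 7.4) served as blank.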
Experimental: (§1) Sensor chip CM3 (GE Healthcare) was immobilized with an appropriate amount of sure protein A (GE Healthcare) by amine coupling. The selected antibodies were captured by the chip to allow interaction to human CD3ed, human CD137 and cyno CD137 as an antigen. The running buffer used was 20 mmol/l ACES, 150 mmol/l NaCl, 0.05% (w/v) Tween20, pH 7.4. All measurements were carried out at 25 degrees C. The antigens were diluted using the running buffer.
(§2) Diluted antigen solutions and the running buffer which is the blank were loaded at a flow rate of 30 micro L/min for 120 seconds to allow each of the antigens to interact with the antibody captured on the sensor chip. […] Next, to regenerate the sensor chip, 10 mmol/L glycine-HCl, pH 1.5 was loaded at a flow rate of 30 micro L/min for 30 seconds and 50 mmol/L NaOH was loaded at a flow rate 30 micro L/min for 30 seconds.
(§3) Kinetic parameters such as the association rate constant ka (1/Ms) and the dissociation rate constant kd (1/s) were calculated based on the sensorgrams obtained by the measurements. The dissociation constant KD(M) was calculated from these constants. Each parameter was calculated using the Biacore T200 Evaluation Software (GE Healthcare).

Experiment [2] has as its target T2, cynomolgus monkey CD137 (cynomolgus monkey, UniProt Q07011 24-186 (human entry), limits assumed).
T2 construct: Soluble analyte in the Biacore assay; also called cyno CD137
T2 chain: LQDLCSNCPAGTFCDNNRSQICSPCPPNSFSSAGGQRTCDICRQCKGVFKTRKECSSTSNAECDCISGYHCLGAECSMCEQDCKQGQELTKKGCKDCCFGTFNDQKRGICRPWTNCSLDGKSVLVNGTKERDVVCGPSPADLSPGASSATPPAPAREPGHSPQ
Described as above.
Experimental: as §1, §2, §3

The target in experiment [3] is human CD137 expressed constitutively on the B cell strain HDLM-2 (human, UniProt Q07011 24-255). Description: cell-based or functional assay.
human CD137 expressed constitutively on the B cell strain HDLM-2, sequence (Q07011 24-255): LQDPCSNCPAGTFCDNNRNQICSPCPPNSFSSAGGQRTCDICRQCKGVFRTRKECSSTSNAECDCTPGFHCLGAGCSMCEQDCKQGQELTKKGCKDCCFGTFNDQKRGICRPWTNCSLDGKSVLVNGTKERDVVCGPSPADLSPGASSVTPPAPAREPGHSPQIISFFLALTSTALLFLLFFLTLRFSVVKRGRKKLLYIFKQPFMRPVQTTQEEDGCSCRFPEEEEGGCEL

T1 sequence (P07766 23-126 limits assumed, chain 1 of 2): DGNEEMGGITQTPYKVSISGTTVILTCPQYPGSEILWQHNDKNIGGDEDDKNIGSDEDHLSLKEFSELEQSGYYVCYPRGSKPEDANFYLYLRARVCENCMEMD
T1 sequence (P04234 22-105 limits assumed, chain 2 of 2): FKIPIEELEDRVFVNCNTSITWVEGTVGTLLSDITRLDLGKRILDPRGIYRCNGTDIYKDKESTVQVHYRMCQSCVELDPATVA

B1: dBBDu_186 / dBBDu_L096 (antibody, human IgG1, V domains shown)
VH: QVQLVESGGGLVQPGRSLRLSCAASGFTFSNAWMHWVRQAPGKGLEWVAQIKDRSNQYATYYAPSVKGRFTISRDDSKNSIYLQMNSLKTEDTAVYYCHYVHYAQASTVLPAFGVDAWGQGTTVTVSS
VL: DIVMTQSPLSLPVTPGEPASISCRTSQELVHINRYIFLHWYQQKPGQAPRLLIYKVYNRFQGVPDRFSGSGSGTDFTLKISRVEAEDVGVYYCAQGTSVPYTFGQGTKLEIK
notes: Tested as IgG (human IgG1 constant region, kappa light chain); also called dBBDu186/L096
In experiment [1], B1 returned a Kd of 9.11 µM, a dissociation rate constant (koff) of 0.102 s⁻¹ and an on-rate (kon) of 11200 M⁻¹ s⁻¹. In experiment [2], the dissociation constant (Kd) was 205 µM and the koff is 0.00223 s⁻¹.

B2: dBBDu_167 / dBBDu_L091 (antibody, human IgG1, V domains shown)
VH: QVQLVESGGGLVQPGRSLRLSCAASGFTFSNAWMHWVRQAPGKGLEWVAQIKDKGNLYAAYYAPSVKGRFTISRDDSKNSIYLQMNSLKTEDTAVYYCHYVHYASAGGGLPGFGVDAWGQGTTVTVSS
VL: DIVMTQSPLSLPVTPGEPASISCSASESLLHNNRHTYLHWYQQKPGQAPRLLIYRVSNRFNGVPDRFSGSGSGTDFTLKISRVEAEDVGVYYCGQGTQVPFTFGQGTKLEIK
notes: Tested as IgG (human IgG1 constant region, kappa light chain); also called dBBDu167/L091
As to B2, in experiment [1], the Kd stood at 0.413 µM, the koff came to 0.0216 s⁻¹ and the association rate constant (kon) came out at 52400 M⁻¹ s⁻¹. In experiment [2], this molecule came in with an equilibrium dissociation constant (Kd) of 4.17 µM, a koff of 0.0101 s⁻¹ and a kon of 2430 M⁻¹ s⁻¹.

B3: dBBDu_183 / dBBDu_L063 (antibody, V domains shown)
VH: QVQLVESGGGLVQPGRSLRLSCAASGFTFSNAWMHWVRQAPGKGLEWVAQIKDKGNAYAAYYAPSVKGRFTISRDDSKNSIYLQMNSLKTEDTAVYYCHYVHYASASTVLPAFGVDAWGQGTTVTVSS
VL: DIVMTQSPLSLPVTPGEPASISCRSSQELVHTNRHTYLHWYQQKPGQAPRLLIYKVSNRFPGVPDRFSGSGSGTDFTLKISRVEAEDVGVYYCAQGTQVPFTFGQGTKLEIK
notes: Tested as IgG (Fab genes converted into IgG format, human IgG1 constant region, kappa light chain); also called dBBDu183/L063; dBBDu_183/L063
Take B3: in experiment [1], binding was characterised by a dissociation constant (Kd) of 0.276 µM, the koff was found to be 0.0157 s⁻¹ and the kon was found to be 56900 M⁻¹ s⁻¹. In experiment [2], this molecule came in with a Kd of 3.12 µM, a koff of 0.00457 s⁻¹ and an on-rate (kon) of 1470 M⁻¹ s⁻¹.

B4: dBBDu_189 / dBBDu_L116 (antibody, human IgG1, V domains shown)
VH: QVQLVESGGGLVQPGRSLRLSCAASGFTFSNAWMHWVRQAPGKGLEWIAQIKDRSNQYATYYAPSVKGRFTISRDDSKNSIYLQMNSLKTEDTAVYYCHYVHYAQASSLLPSFGVDAWGQGTTVTVSS
VL: DIVMTQSPLSLPVTPGEPASISCSSSQELVHANRQIYLHWYQQKPGQAPRLLIYKVANRFPGVPDRFSGSGSGTDFTLKISRVEAEDVGVYYCAQGTQVPFTFGQGTKLEIK
notes: Tested as IgG (human IgG1 constant region, kappa light chain); also called dBBDu189/L116
In experiment [1], B4 displayed a Kd of 0.209 µM, an off-rate (koff) of 0.00434 s⁻¹ and a kon of 20800 M⁻¹ s⁻¹. Also, in experiment [2], the Kd stood at 11.1 µM, the koff was found to be 0.00823 s⁻¹ and the association rate constant (kon) came to 744 M⁻¹ s⁻¹.

B5: dBBDu_183 / dBBDu_L067 (antibody, human IgG1, V domains shown)
VH: QVQLVESGGGLVQPGRSLRLSCAASGFTFSNAWMHWVRQAPGKGLEWVAQIKDKGNAYAAYYAPSVKGRFTISRDDSKNSIYLQMNSLKTEDTAVYYCHYVHYASASTVLPAFGVDAWGQGTTVTVSS
VL: DIVMTQSPLSLPVTPGEPASISCQSSESLVHVNRHTYLHWYQQKPGQAPRLLIYKVYNRFPGVPDRFSGSGSGTDFTLKISRVEAEDVGVYYCAQGTSVPFTFGQGTKLEIK
notes: Tested as IgG (human IgG1 constant region, kappa light chain); also called dBBDu183/L067
As for B5, in experiment [1], the Kd turned out to be 0.217 µM, the koff came out at 0.0193 s⁻¹ and the kon stood at 88900 M⁻¹ s⁻¹. Moreover, in experiment [2], the Kd was found to be 6.2 µM, the dissociation rate constant (koff) is 0.00813 s⁻¹ and the kon worked out at 1310 M⁻¹ s⁻¹.

B6: dBBDu_183 / dBBDu_L072 (antibody, human IgG1, V domains shown)
VH: QVQLVESGGGLVQPGRSLRLSCAASGFTFSNAWMHWVRQAPGKGLEWVAQIKDKGNAYAAYYAPSVKGRFTISRDDSKNSIYLQMNSLKTEDTAVYYCHYVHYASASTVLPAFGVDAWGQGTTVTVSS
VL: DIVMTQSPLSLPVTPGEPASISCQASQELVHMNRNTYLHWYQQKPGQAPRLLIYKVSNRFPGVPDRFSGSGSGTDFTLKISRVEAEDVGVYYCAQGTSVPFTFGQGTKLEIK
notes: Tested as IgG (human IgG1 constant region, kappa light chain); also called dBBDu183/L072; H183L072
In experiment [1], B6 returned an equilibrium dissociation constant (Kd) of 0.217 µM, a koff of 0.00785 s⁻¹ and a kon of 36100 M⁻¹ s⁻¹. In experiment [2], this molecule showed a dissociation constant (Kd) of 4.87 µM, an off-rate (koff) of 0.00593 s⁻¹ and a kon of 1220 M⁻¹ s⁻¹.

B7: GPC3 ERY22-dBBDu_189/L116 (bispecific antibody, human IgG1, kappa, L234A L235A, N297A)
heavy 1: DIVMTQSPLSLPVTPGEPASISCRSSQSLVHSNRNTYLHWYQQKPGQAPRLLIYKVSNRFSGVPDRFSGSGSGTDFTLKISRVEAEDVGVYYCSQNTHVPPTFGQGTKLEIKSSASTKGPSVFPLAPSSKSTSGGTAALGCLVKDYFPEPVTVSWNSGALTSGVHTFPAVLQSSGLYSLSSVVTVPSSSLGTQTYICNVNHKPSNTKVDKKVEPKSCDKTHTCPPCPAPEAAGGPSVFLFPPKPKDTLMISRTPEVTCVVVDVSHEDPEVKFNWYVDGVEVHNAKTKPREEQYASTYRVVSVLTVLHQDWLNGKEYKCKVSNKALPAPIEKTISKAKGQPREPQVCTLPPSRDELTKNQVSLWCLVKGFYPSDIAVEWESNGQPENNYKTTPPVLDSDGSFFLYSKLTVDKSRWQQGNVFSCSVMHEALHNHYTQKSLSLSPHHHHHHHH
light 1: QVQLVQSGAEVKKPGASVKVSCKASGYTFTDYEMHWIRQPPGQGLEWIGAIDPKTGDTAYSQKFKGRVTLTADKSTSTAYMELSSLTSEDTAVYYCTRFYSYTYWGQGTLVTVSSASVAAPSVFIFPPSDEQLKSGTASVVCLLNNFYPREAKVQWKVDNALQSGNSQESVTEQDSKDSTYSLSSTLTLSKADYEKHKVYACEVTHQGLSSPVTKSFNRGEC
heavy 2: QVQLVESGGGLVQPGRSLRLSCAASGFTFSNAWMHWVRQAPGKGLEWIAQIKDRSNQYATYYAPSVKGRFTISRDDSKNSIYLQMNSLKTEDTAVYYCHYVHYAQASSLLPSFGVDAWGQGTTVTVSSASTKGPSVFPLAPSSKSTSGGTAALGCLVKDYFPEPVTVSWNSGALTSGVHTFPAVLQSSGLYSLSSVVTVPSSSLGTQTYICNVNHKPSNTKVDKKVEPKSCDKTHTCPPCPAPEAAGGPSVFLFPPKPKDTLMISRTPEVTCVVVDVSHEDPEVKFNWYVDGVEVHNAKTKPREEQYASTYRVVSVLTVLHQDWLNGKEYKCKVSNKALPAPIEKTISKAKGQPREPQVYTLPPSRCELTKNQVSLSCAVKGFYPSDIAVEWESNGQPENNYKTTPPVLDSDGSFFLVSKLTVDKSRWQQGNVFSCSVMHEALHNHYTQKSLSLSPDYKDDDDK
light 2: DIVMTQSPLSLPVTPGEPASISCSSSQELVHANRQIYLHWYQQKPGQAPRLLIYKVANRFPGVPDRFSGSGSGTDFTLKISRVEAEDVGVYYCAQGTQVPFTFGQGTKLEIKRTVAAPSVFIFPPSDEQLKSGTASVVCLLNNFYPREAKVQWKVDNALQSGNSQESVTEQDSKDSTYSLSSTLTLSKADYEKHKVYACEVTHQGLSSPVTKSFNRGEC
For the molecule B7, in experiment [3], the “Agonistic activity compared to B, antibody 6 µg/mL” value was 8.28%; the “Agonistic activity compared to B, antibody 30 µg/mL” value was 19.2%; the “Agonistic activity compared to Ctrl, antibody 6 µg/mL” value stood at 28.7%; the “Agonistic activity compared to Ctrl, antibody 30 µg/mL” value amounted to 72.9%. Also, in experiment [3], the “hIL-6 (pg/mL), antibody 6 µg/mL” value was 1300 pg/mL and the “hIL-6 (pg/mL), antibody 30 µg/mL” value was found to be 1570 pg/mL.

B8: GPC3 ERY22-dBBDu_189/L119 (bispecific antibody, human IgG1, kappa, L234A L235A, N297A)
heavy 1: DIVMTQSPLSLPVTPGEPASISCRSSQSLVHSNRNTYLHWYQQKPGQAPRLLIYKVSNRFSGVPDRFSGSGSGTDFTLKISRVEAEDVGVYYCSQNTHVPPTFGQGTKLEIKSSASTKGPSVFPLAPSSKSTSGGTAALGCLVKDYFPEPVTVSWNSGALTSGVHTFPAVLQSSGLYSLSSVVTVPSSSLGTQTYICNVNHKPSNTKVDKKVEPKSCDKTHTCPPCPAPEAAGGPSVFLFPPKPKDTLMISRTPEVTCVVVDVSHEDPEVKFNWYVDGVEVHNAKTKPREEQYASTYRVVSVLTVLHQDWLNGKEYKCKVSNKALPAPIEKTISKAKGQPREPQVCTLPPSRDELTKNQVSLWCLVKGFYPSDIAVEWESNGQPENNYKTTPPVLDSDGSFFLYSKLTVDKSRWQQGNVFSCSVMHEALHNHYTQKSLSLSPHHHHHHHH
light 1: QVQLVQSGAEVKKPGASVKVSCKASGYTFTDYEMHWIRQPPGQGLEWIGAIDPKTGDTAYSQKFKGRVTLTADKSTSTAYMELSSLTSEDTAVYYCTRFYSYTYWGQGTLVTVSSASVAAPSVFIFPPSDEQLKSGTASVVCLLNNFYPREAKVQWKVDNALQSGNSQESVTEQDSKDSTYSLSSTLTLSKADYEKHKVYACEVTHQGLSSPVTKSFNRGEC
heavy 2: QVQLVESGGGLVQPGRSLRLSCAASGFTFSNAWMHWVRQAPGKGLEWIAQIKDRSNQYATYYAPSVKGRFTISRDDSKNSIYLQMNSLKTEDTAVYYCHYVHYAQASSLLPSFGVDAWGQGTTVTVSSASTKGPSVFPLAPSSKSTSGGTAALGCLVKDYFPEPVTVSWNSGALTSGVHTFPAVLQSSGLYSLSSVVTVPSSSLGTQTYICNVNHKPSNTKVDKKVEPKSCDKTHTCPPCPAPEAAGGPSVFLFPPKPKDTLMISRTPEVTCVVVDVSHEDPEVKFNWYVDGVEVHNAKTKPREEQYASTYRVVSVLTVLHQDWLNGKEYKCKVSNKALPAPIEKTISKAKGQPREPQVYTLPPSRCELTKNQVSLSCAVKGFYPSDIAVEWESNGQPENNYKTTPPVLDSDGSFFLVSKLTVDKSRWQQGNVFSCSVMHEALHNHYTQKSLSLSPDYKDDDDK
light 2: DIVMTQSPLSLPVTPGEPASISCTASQELVHINRFIFLHWYQQKPGQAPRLLIYKVSNRFIGVPDRFSGSGSGTDFTLKISRVEAEDVGVYYCAQGSQVPFTFGQGTKLEIKRTVAAPSVFIFPPSDEQLKSGTASVVCLLNNFYPREAKVQWKVDNALQSGNSQESVTEQDSKDSTYSLSSTLTLSKADYEKHKVYACEVTHQGLSSPVTKSFNRGEC
B8: in experiment [3], the “Agonistic activity compared to B, antibody 6 µg/mL” value was 6.92%; the “Agonistic activity compared to B, antibody 30 µg/mL” value turned out to be 20.4%; the “Agonistic activity compared to Ctrl, antibody 6 µg/mL” value was 24%; the “Agonistic activity compared to Ctrl, antibody 30 µg/mL” value turned out to be 77.3%. Further, in experiment [3], the “hIL-6 (pg/mL), antibody 6 µg/mL” value turned out to be 1260 pg/mL and the “hIL-6 (pg/mL), antibody 30 µg/mL” value is 1610 pg/mL.

Broadly, the Kd is the concentration at which binding is half-saturated. A word on the koff: it is a measure of how fast the partners let go of each other. As usually defined, the kon is a measure of how fast the partners come together.
